Results taken from publication PMC3561149, “Bifurcation of Arabidopsis NLR Immune Signaling via Ca2+-Dependent Protein Kinases”.

Assays:
[1] = target: T1, MBP-WRKY48 (Arabidopsis thaliana (Col-0), UniProt Q9FGZ4 1-399); assay: EMSA; unphosphorylated; EMSA: 5x binding buffer (4% glycerol, 1 mM MgCl2, 0.5 mM EDTA, 0.5 mM DTT, 10 mM Tris-HCl pH 7.5), 1 ug poly-dIdC, BSA, 2.5 ug protein, ~20,000 cpm probe, room; settings: protein: recombinant; tags: MBP (pMAL-C2); label: 32P 5' end label
[2] = target: T1, MBP-WRKY48; assay: competition; unlabeled competitor vs labeled W-boxes; binding largely reduced; EMSA: 5x binding buffer (4% glycerol, 1 mM MgCl2, 0.5 mM EDTA, 0.5 mM DTT, 10 mM Tris-HCl pH 7.5), 1 ug poly-dIdC, BSA, 2.5 ug protein, ~20,000 cpm probe, room; settings: protein: recombinant; tags: MBP (pMAL-C2); label: none

T1 sequence (Q9FGZ4 whole entry): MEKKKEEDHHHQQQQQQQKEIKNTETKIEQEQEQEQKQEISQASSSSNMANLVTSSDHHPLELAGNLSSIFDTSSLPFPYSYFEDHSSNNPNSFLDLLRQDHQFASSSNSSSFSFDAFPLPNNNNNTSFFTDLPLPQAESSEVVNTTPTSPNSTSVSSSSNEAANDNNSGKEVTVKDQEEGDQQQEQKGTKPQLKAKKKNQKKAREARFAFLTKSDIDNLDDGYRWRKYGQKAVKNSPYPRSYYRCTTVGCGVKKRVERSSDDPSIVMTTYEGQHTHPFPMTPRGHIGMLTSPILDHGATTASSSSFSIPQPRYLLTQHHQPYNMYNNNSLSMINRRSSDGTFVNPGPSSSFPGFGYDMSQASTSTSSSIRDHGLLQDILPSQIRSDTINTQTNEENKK

B1: W-boxes probe (four W-boxes of WRKY46 promoter) (dsDNA)
DNA 1: CTGTCAATTCTTTGACCCCAGTTGACGAATGTCAATT
DNA 2: AATTGACATTCGTCAACTGGGGTCAAAGAATTGACAG
B1: binds [1].

B2: unlabeled W-boxes oligonucleotide (specific competitor) (dsDNA)
DNA 1: CTGTCAATTCTTTGACCCCAGTTGACGAATGTCAATT
DNA 2: AATTGACATTCGTCAACTGGGGTCAAAGAATTGACAG
B2: binds [2].

B3: mW-boxes probe (mutated W-boxes) (dsDNA)
DNA 1: CTTTCAATTCTTTGAACCCAGTTGAAGAATTTCAATT
DNA 2: AATTGAAATTCTTCAACTGGGTTCAAAGAATTGAAAG
B3: no binding [1].
